Common to all, as to test: capture ELISA on E. coli lysate
For experiment [1], the target named is HyW-IM2(-)78 hybrid WHcAg particle (woodchuck hepatitis virus; influenza A virus).
The target in experiment [2] is 150C-IM2(74) hybrid WHcAg construct (woodchuck hepatitis virus; influenza A virus).
Experiment [3] deals with HyW-IM2(74) hybrid WHcAg construct (woodchuck hepatitis virus; influenza A virus).
The target in experiment [4] is WT-R-IM2(74) hybrid WHcAg construct (woodchuck hepatitis virus; influenza A virus).

As to mAb 14C2, anti-influenza M2e (antibody), the relative binding score (Accessability) (relative score) in experiment [1] worked out at 3; in experiment [2] it was 3; in experiment [3] it was 3; in experiment [4] it was 2.
